# Reference: the DeepSol protein solubility set
# Assay: soluble on expression in E. coli; label from the status in PepcDB or PDB records
row,Sequence,soluble on expression in E. coli
1,MKRLTAKEEEIMGFFWEKGPLFVKEILAFYDEPRPHFNTLSTIVRGLEEKGFLAHHTYGNTYQYYAVVSESDFSKRTLKSVISKYFNNSYLSAVSSLVKEEDISLDDLKKLIQEVEQKNEE,soluble
2,MKRMLFIFVSSFLLIALAACAQGKETKSELDYDQTKKMIVDILKTDQGKKAIQDVLTDEKMKQALILDETVVKKTIEDAMVSDKGQQFWEKLFKDPEFSSKFAKSMGKEQTQLMKTLLKDPEYQAGVIEIMKNPEVEKMMLQTMKSKEYRQYLQQVLTETAESPLFQAKMIDIISKGVQKAEKGGSGKKEAGGDGGSQGEKKEEQ,not soluble
3,MKRSSVFSFLVAFLLVAGCSHKMDNKTVAGDVSAKTVQTAPVTTEPAPEKEEPKQEPAPVVEEKPAVESGTIIASIYFDFDKYEIKESDQETLDEIVQKAKENHMQVLLEGNTDEFGSSEYNQALGVKRTLSVKNALVIKGVEKDMIKTISFGETKPKCAQKTRECYKENRRVDVKLMK,not soluble
4,MKRTIFLLMSILLLLTACGDGHKQTSSDKEQSEHKDNHNKNQVKQIATDKKVQGDNYRTILPFKESQARGLLQDNMANGYNGEDFESGLLELSKEIFPTNKYLYQDGQYLDKKTINAYLDPKYTKKEIDKMSEKEKKSKNANENLGLNPSHNGETDEEKIAKNSPAYLSNILEQDFYGNSDSKGKNIKGMTIGLAMNSVYYYKKEKDGETFSKDLSDKEIEKQGKQMASEMLSRLRENSDLKDIPIHFAIYKQSSQDSITPGEFIVGTTVEEGKTKINSWDNINEKAALIPSSTAADYDETLNNNFKQFNDNLQSYFSNFTQAVGKVKFVNKKAKQLTVDLPIDYYGQAETIGITQYVTEQAEKYFDKLDEYEIRIKDGNTPRALISKTKDDKEPQVHIYHN,not soluble
5,MKSHCNKMVGGELKPIIAALLPVEPFYPTQVPFVLSRYIYDVADRQQSSLDYVAVSALCALAAVIGNPHCS,not soluble
6,MKSIVEKLNLTKYQQLVILNRPQGEYLSEFASAAQQLPSEPVELIFAFVKTMAEFQEIVSMVIEGQHLVENGLLYVAYPKKGNKMYPTFVHRDEIFPTLQVNEADGYIKGSTLKFNRMVSLDETFTVVGMKNVLKKLAKNQTSSAVGDYVQYLPEIEALVQTEPAAAATFAALTPGYQKEWARYVFSAKRAETRKKRQTEMLVILKEGYKTKALYQQRKK,not soluble
7,MKSMQDYRTIMTGNDAVAYGAKLARVKLISAYPITPQTTIVEKLASMIANDELDAKYVKVESEHSALATVVSSELAGVRSYTATSSHGLLYMHEMLHWASGQRLPIVMSVVNRAIGPPWNIWADQSDTMNQKDTGWMQVYCESNQEALDTIIMGYKIAENKDVLLPLMSMEDAFILSHTSEPVTIRDQESVNEYLPDLDLPFKINEEHPMGYGSYDTPDGSFMELKKDMVDSMQKAKRIIEDETRKFNEMFGTEYGGLIEKYRMEDADYAIIATGTIASTARYVVDILRKKGEKVGLIRIRYFRPFPYEEILSSLKYVKAAGVIDRSVSFSSGGPTYVEIVQGLYGKLNVPLSSFIAGIGGRDVRIQDIENIYEMLKSGNSGTYWINVKEVR,not soluble
8,MKSMVEMQREVDEYIGQFKTGYFSPLANLARLTEEVGELAREINHTYGEKKKKDSEEANTIKAELGDNLFVLLCLANSMGIDMTESFNETMEKFNTRDKNRFERKLEHHHHHH,soluble
9,MKSQFNQKLEDKFQRNAEQVVSLVKERMQLYENALWSSVAYIDADETDITHTKWLAYSKSLKIDLTYPGINGIGIIYNIQADQLDDYIEKQRVLRPNYAIHPSHNESEYWPITYVEPAAPNKKAIGLDMAFETNRYSSIKKARDTGVAQLTGPITLVQDAKKTPGFLFYTPFYKNGTKPESTEARRDAIDGVTYAPFIMKNLMQGTLAEKNRHVSIQIRDAGDLLFDDHDDESVLDADANPLFTKEQDISLYGRTWSFTIQSNLDFRDESAANQLEHHHHHH,not soluble
10,MKSQLRKKTLEALSALSNEDILQKTERMYKYLFSLPEWQNAGTIAVTISRGLEIPTRPVIEQAWEEGKQVCIPKCHPDTKKMQFRTYQTDDQLETVYAGLLEPVIEKTKEVNPSQIDLMIVPGVCFDVNGFRVGFGGGYYDRYLSEYEGKTVSLLLECQLFAHVPRLPHDIPVHKLITEDRIISCFSLEHHHHHH,soluble
11,MKSRYLLFFLPLIVAKYTSAATMQPFHSPEESVNSQFYLPPPPGNDDPAFRYDKEAYFKGYAIKGSPRWKQAAEDADISVENIARIFSPVVGAKISPKDTPETWNMLQNLLKVGGYYATASAKKYYMRTRPFVLFNHSTCRPEDENTLRKDGSYPSGHTAYSTLLALVLSQARPERAQELARRGWEFGQSRVICGAHWQSDVDAGRYVGAVEFARLQTIPAFQKSLAKVREELNDKNNLLSKEERPELNY,soluble
12,MKSVMSNPTFRQDSIRMFRGRKPPQKGKPAMEIKSERSDSQHTLTITVPLGKASRNDQPPSNLTEEAAKKVAGTGRNDGKKVQFAEKLVNKTKSPSTGPSTSKKLQKSQKTQKSSKKSQKKSKKSKKSSKSK,not soluble
13,MKTIHVSVVTPDGPVYEDDVEMVSVKAKSGELGILPGHIPLVAPLEISAARLKKGGKTQYIAVSGGFLEVRPDKVTILAQAAERAEDIDVLRAKAAKERAERRLQSQQDDIDFKRAELALKRAMNRLSVAEMK,soluble
14,MKTITETLNLAPKGKNFLTADWPAPANVKTLITTRNGGVSQGAYQSLNLGTHVGDNPEAVRRNREIVQQQVGLPVAYLNQIHSTVVVNAAEALGGTPDADASVDDTGKVACAVMTADCLPVLFCDRAGTAVAAAHAGWRGLAGGVLQNTIAAMKVPPVEMMAYLGPAISADAFEVGQDVFDAFCTPMPEAATAFEGIGSGKFLADLYALARLILKREGVGGVYGGTHCTVLERDTFFSYRRDGATGRMASLIWLDGNAV,soluble
15,MKTIWTGAIGFGLVNIPVKLFSATHESRLDLDMLDKKDHSNIKFQRVNAKTGKEVAWDNIVKGYKIEDDYVILDEKDFEKANAKKTKTIEILQFVQEDEIDSVYFETPYYIQPDKSGTRAYALLREALIKSKKVAVANYVLRNKEALAILKPVGNVIVLNKIRFQEEILDADALDLPAKSAIKEGEMKMALSLIDQLTETFDISKYKDTYTSELLKLIKAKAKGTVVKTKSAASKPTATKDLMAQLKASLQPTKRAAAR,not soluble
16,MKTLIEIKQTPDGIIKADKVFNKVKDKISLPNRILYLGCGSSHFLSKLLAMVTNMHGGLGIALPCSEFLYSKETYPIGEVELAVGISRSGETTEILLALEKINVKKLGITTRESSLTRMCDYSLVVPAIEESVVMTHSFTSFYFAYLQLLRYSYGLPPLNAGEISKATEKSLEYERYIREIVESFDFQNIIFLGSGLLYPVALEASLKMKEMSIFWSEAYPTFEVRHGFKAIADEKTLVVLMVEEPFEWHEKLVKEFKNQGAKVLVISNSPQDLGQDYSIELPRLSKDANPIPYLPIVQLLSYYKAVSRGLNPDNPRFLDKVVRW,soluble
17,MKTLNRRDFPGAQYPERIIQFGEGNFLRAFVDWQIDLLNEHTDLNSGVVVVRPIETSFPPSLSTQDGLYTTIIRGLNEKGEAVSDARLIRSVNREISVYSEYDEFLKLAHNPEMRFVFSNTTEAGISYHAGDKFDDAPAVSYPAKLTRLLFERFSHFNGALDKGWIIIPCELIDYNGDALRELVLRYAQEWALPEAFIQWLDQANSFCSTLVDRIVTGYPRDEVAKLEEELGYHDGFLDTAEHFYLFVIQGPKSLATELRLDKYPLNVLIVDDIKPYKERKVAILNGAHTALVPVAFQAGLDTVGEAMNDAEICAFVEKAIYEEIIPVLDLPRDELESFASAVTGRFRNPYIKHQLLSIALNGMTKFRTRILPQLLAGQKANGTLPARLTFALAALIAFYRGERNGETYPVQDDAHWLERYQQLWSQHRDRVIGTQELVAIVLAEKDHWEQDLTQVPGLVEQVANDLDAILEKGMREAVRPLC,not soluble
18,MKTLSPAVITLLWRQDAAEFYFSRLSHLPWAMLLHSGYADHPYSRFDIVVAEPICTLTTFGKETVVSESEKRTTTTDDPLQVLQQVLDRADIRPTHNEDLPFQGGALGLFGYDLGRRFESLPEIAEQDIVLPDMAVGIYDWALIVDHQRHTVSLLSHNDVNARRAWLESQQFSPQEDFTLTSDWQSNMTREQYGEKFRQVQEYLHSGDCYQVNLAQRFHATYSGDEWQAFLQLNQANRAPFSAFLRLEQGAILSLSPERFILCDNSEIQTRPIKGTLPRLPDPQEDSKQAVKLANSAKDRAENLMIVDLMRNDIGRVAVAGSVKVPELFVVEPFPAVHHLVSTITAQLPEQLHASDLLRAAFPGGSITGAPKVRAMEIIDELEPQRRNAWCGSIGYLSFCGNMDTSITIRTLTAINGQIFCSAGGGIVADSQEEAEYQETFDKVNRILKQLEK,soluble
19,MKTSPRSNRLHIALFGKRNSGKSSLINALTNQNAALVSDIAGTTTDPVYQPMEIHGIGPCVFIDTAGFDDEGELGSLRIERTLQAADKADIALMVCCDTELSEEQRWIELLKERNIPYLLVLNKADLLEKPDEVADKLEQQTGQHPLIVSAKEKTGIDSIRQSILHRLPELNEQPDIVGDLANEGDVVLLVMPQDIQAPKGRLILPQVQTLRELLDKKCITLSCTTDQLDNALKALSVPPSLIITDSQVFRTVYEKKPPQSRLTSFSVLFARYKGDIDYYTEGAYIIDQLTENSRVLIAEACTHAPLSEDIGRVKLPRMLRKRIGEKLHIDIVSGNDFPKDLNCYDLIIHCGACMFNRKHVLNRIVKAKAQGVPMTNYGIVIAYINGIPFH,soluble
20,MKTSSASKSHYTGQFPQGDLQPKTPIPVGRNSEIPKDAALSAQLKGLRPLDRKPSKMPTSSSDLQAVNKMIAENRSNDVGKGQFLLSTQSLGSAERVDSQNYHSRNESGKAPLFFSEFATEKPSLQSVKSLSQGKQDYYAVRHVGKRGRDLFTDEPIEGENSKLGRLKTSPLLSTQSQGTRAIRAFAATATIDKSRGEYVARLHRHVVEALGDEGGVVHLLRPTRDHYAEDSTLNFFTFCEQTELASSLNSLEAISAKKEDRKPIVFTDHKSLVGLSRTSRTEASPIGRLVQQPYFVTSDLKRGDKVVITDDHIQAGGSMLAMEAAAKEAGVDVLALATLSAHPFSPQLTMSSEVSAFLDETLAAWDPQGKVTERLAAIGMPREKLTNSEAMILIAYAIDPASDSAILRFESIQNNLFKRAHLHNVGIDPDAPDTLEQMQKLSSMQEMAGTDSARHFVDDAKVLEGEHDSLIPILKMKPASP,not soluble
21,MKTTEFTMPEITISYKDNVKASERVKILSSETSYTYLKPFYAECMEHHEESYVMFLNRANKALGISLISKGGMAETVMDVKIILQTALKVHASGIVLSHNHPSGNLRPSEPDKKITTKINEACKVLDLHLLDHIILTEESYYSFADEGLL,not soluble
22,MKTTTYNTDWAAEKTKIRSFFDEYYVDNEDGSGKAFPYRDQVFEIARRDKQAIVVNVDHIKESDIPDALELSEAITSNTKRYEVLFKDTISDMIQDYLGDKQAPVIDALDAYMFQRLHMDRNEGAANEEVSLQDKRKKYPPQLLQRFEVYFTTDDAAHETCVRNIKATEIGHLVSMKGVVIRATEVKPCVEVMTYTCDTCAAEVYQPVKGMQFTPPVNCPNKECVEAKANGRLHMQLRGSKFVKFQELKIQELSEQVPVGSIPRTMTVHVYGEMTRKCNTGNVVHVSGVFLPIMQSGFRPTGGLVADTYLEAHYINNLDDNPTFNGVQSAELEVLRRKGDNYETLAASIAPEIFGHVDVKKCLLMALVGGNDNSSNGMKIRGCINVLMMGDPGVAKSQLLGYVNRLAPRSQYTTGRGSSGVGLTAAVMKDPVTGEMSLEGGALVLADGGICCIDEFDKMMDHDRTAIHEVMEQQTISIAKAGIMTTLNARTAIIAAANPAYGRYNPNRSIEQNVDLPAALLSRFDLILLMQDKADRENDKILAEHITYVHQHGCHPNREKKDLISLETLREYISLCKTYTPTVDPALRERIVEAYVEMRRDARYSSDPTFVSPRMILGIVRMATARAKLRLSTIVDESDVEEALRLMQFAKDSLRPEQNKIEKRMAPVDAAFAVLRELYHADNAPIAISNAIQRCARKGISEVALKKCLDQYTANGLLVMDRQNIVFAMN,not soluble
